Assay results as given in patent US20090280138A1 (OXFORD BIOMEDICA UK, published 2009).

B1: 5T4 9-mer peptide 156 (ETEVVQGKD) (peptide)
peptide: ETEVVQGKD
B2: 5T4 9-mer peptide 160 (DRLTCAYPE) (peptide)
peptide: DRLTCAYPE
B3: 5T4 9-mer peptide 199 (EGYHYRYEI) (peptide)
peptide: EGYHYRYEI
B4: 5T4 9-mer peptide 171 (DLDCDPILP) (peptide)
peptide: DLDCDPILP
B5: 5T4 9-mer peptide 158 (VQGKDRLTC) (peptide)
peptide: VQGKDRLTC
B6: 5T4 9-mer peptide 165 (MRNRVLLEL) (peptide)
peptide: MRNRVLLEL
B7: 5T4 9-mer peptide 172 (DCDPILPPS) (peptide)
peptide: DCDPILPPS
B8: 5T4 9-mer peptide 180 (LGIVLALIG) (peptide)
peptide: LGIVLALIG
B9: 5T4 9-mer peptide 155 (LKETEVVQG) (peptide)
peptide: LKETEVVQG
B10: 5T4 9-mer peptide 203 (INADPRLTN) (peptide)
peptide: INADPRLTN
B11: 5T4 9-mer peptide 185 (IFLLVLYLN) (peptide)
peptide: IFLLVLYLN
B12: 5T4 9-mer peptide 200 (YHYRYEINA) (peptide)
peptide: YHYRYEINA
B13: 5T4 9-mer peptide 194 (NIRDACRDH) (peptide)
peptide: NIRDACRDH
B14: 5T4 9-mer peptide 205 (PRLTNLSSN) (peptide)
peptide: PRLTNLSSN
B15: 5T4 9-mer peptide 173 (DPILPPSLQ) (peptide)
peptide: DPILPPSLQ
B16: 5T4 9-mer peptide 161 (LTCAYPEKM) (peptide)
peptide: LTCAYPEKM
B17: 5T4 9-mer peptide 169 (LNSADLDCD) (peptide)
peptide: LNSADLDCD
B18: 5T4 9-mer peptide 201 (YRYEINADP) (peptide)
peptide: YRYEINADP
B19: 5T4 9-mer peptide 168 (LELNSADLD) (peptide)
peptide: LELNSADLD

These binders were tested against T1, MHC class I molecule A*0101 (biotin (bound to streptavidin-coated plate)) (assay: iTopia peptide binding assay).
T1 construct: iTopia monomer stripped of placeholder peptide and b2M, then reconstituted with test peptide and fresh b2M; also called A1; HLA-A1
In short: (§1)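 Plates coated with MHC class I molecules used to test 9-mer peptides for binding under standardized optimal conditions via the iTopia Epitope Discovery System. Read by ELISA in duplicate with allele-specific positive controls; binders taken on to affinity and off-rate testing.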

Q: B1 was tested. Which “binding, % of positive control peptide” value did it give?
A: 0 % of positive control

Q: How did the “binding, % of positive control peptide” value turn out when B2 was run?
A: 0 % of positive control

Q: With B3 as the binder, how does the “binding, % of positive control peptide” value read?
A: 0 % of positive control

Q: With B4 as the binder, how does the “binding, % of positive control peptide” value read?
A: 0 % of positive control

Q: How did the “binding, % of positive control peptide” value turn out when B5 was run?
A: 0 % of positive control

Q: B6 was tested. Which “binding, % of positive control peptide” value did it give?
A: 0 % of positive control

Q: How did the “binding, % of positive control peptide” value turn out when B7 was run?
A: 0 % of positive control

Q: For B8, which “binding, % of positive control peptide” value is on record?
A: 0 % of positive control

Q: Which “binding, % of positive control peptide” value does the source give for B9 here?
A: 0 % of positive control

Q: B10 was tested. Which “binding, % of positive control peptide” value did it give?
A: 0 % of positive control

Q: B11 was tested. Which “binding, % of positive control peptide” value did it give?
A: 0 % of positive control

Q: How did the “binding, % of positive control peptide” value turn out when B12 was run?
A: 0 % of positive control

Q: For B13, which “binding, % of positive control peptide” value is on record?
A: 0 % of positive control

Q: B14 was tested. Which “binding, % of positive control peptide” value did it give?
A: 2 % of positive control

Q: How did the “binding, % of positive control peptide” value turn out when B15 was run?
A: 0 % of positive control

Q: For B16, which “binding, % of positive control peptide” value is on record?
A: 16 % of positive control

Q: B17 was tested. Which “binding, % of positive control peptide” value did it give?
A: 0 % of positive control

Q: With B18 as the binder, how does the “binding, % of positive control peptide” value read?
A: 0 % of positive control

Q: Which “binding, % of positive control peptide” value does the source give for B19 here?
A: 0 % of positive control

These binders were tested against T2, MHC class I molecule A*0201 (biotin (bound to streptavidin-coated plate)) (assay: iTopia peptide binding assay).
T2 construct: iTopia monomer stripped of placeholder peptide and b2M, then reconstituted with test peptide and fresh b2M; also called A2; HLA-A2
In short: as §1

Q: For B1, which “binding, % of positive control peptide” value is on record?
A: 1 % of positive control

Q: How did the “binding, % of positive control peptide” value turn out when B2 was run?
A: 6 % of positive control

Q: For B3, which “binding, % of positive control peptide” value is on record?
A: 9 % of positive control

Q: Which “binding, % of positive control peptide” value does the source give for B4 here?
A: 0 % of positive control

Q: For B5, which “binding, % of positive control peptide” value is on record?
A: 4 % of positive control

Q: With B6 as the binder, how does the “binding, % of positive control peptide” value read?
A: 6 % of positive control

Q: For B7, which “binding, % of positive control peptide” value is on record?
A: 0 % of positive control

Q: With B8 as the binder, how does the “binding, % of positive control peptide” value read?
A: 10 % of positive control

Q: B9 was tested. Which “binding, % of positive control peptide” value did it give?
A: 3 % of positive control

Q: Which “binding, % of positive control peptide” value does the source give for B10 here?
A: 3 % of positive control

Q: With B11 as the binder, how does the “binding, % of positive control peptide” value read?
A: 8 % of positive control

Q: With B12 as the binder, how does the “binding, % of positive control peptide” value read?
A: 7 % of positive control

Q: How did the “binding, % of positive control peptide” value turn out when B13 was run?
A: 1 % of positive control

Q: For B14, which “binding, % of positive control peptide” value is on record?
A: 8 % of positive control

Q: For B15, which “binding, % of positive control peptide” value is on record?
A: 7 % of positive control

Q: Which “binding, % of positive control peptide” value does the source give for B16 here?
A: 40 % of positive control

Q: Which “binding, % of positive control peptide” value does the source give for B17 here?
A: 0 % of positive control

Q: For B18, which “binding, % of positive control peptide” value is on record?
A: 0 % of positive control

Q: For B19, which “binding, % of positive control peptide” value is on record?
A: 3 % of positive control

What follows are binders tested against T3, MHC class I molecule A*0301 (biotin (bound to streptavidin-coated plate)) (assay: iTopia peptide binding assay).
T3 construct: iTopia monomer stripped of placeholder peptide and b2M, then reconstituted with test peptide and fresh b2M; also called A3; HLA-A3
In short: as §1

Q: How did the “binding, % of positive control peptide” value turn out when B1 was run?
A: 3 % of positive control

Q: How did the “binding, % of positive control peptide” value turn out when B2 was run?
A: 5 % of positive control

Q: Which “binding, % of positive control peptide” value does the source give for B3 here?
A: 0 % of positive control

Q: How did the “binding, % of positive control peptide” value turn out when B4 was run?
A: 4 % of positive control

Q: How did the “binding, % of positive control peptide” value turn out when B5 was run?
A: 6 % of positive control

Q: Which “binding, % of positive control peptide” value does the source give for B6 here?
A: 4 % of positive control

Q: With B7 as the binder, how does the “binding, % of positive control peptide” value read?
A: 3 % of positive control

Q: Which “binding, % of positive control peptide” value does the source give for B8 here?
A: 1 % of positive control

Q: Which “binding, % of positive control peptide” value does the source give for B9 here?
A: 4 % of positive control

Q: How did the “binding, % of positive control peptide” value turn out when B10 was run?
A: 1 % of positive control

Q: How did the “binding, % of positive control peptide” value turn out when B11 was run?
A: 0 % of positive control

Q: Which “binding, % of positive control peptide” value does the source give for B12 here?
A: 1 % of positive control

Q: With B13 as the binder, how does the “binding, % of positive control peptide” value read?
A: 0 % of positive control

Q: How did the “binding, % of positive control peptide” value turn out when B14 was run?
A: 2 % of positive control

Q: For B15, which “binding, % of positive control peptide” value is on record?
A: 4 % of positive control

Q: B16 was tested. Which “binding, % of positive control peptide” value did it give?
A: 8 % of positive control

Q: With B17 as the binder, how does the “binding, % of positive control peptide” value read?
A: 3 % of positive control

Q: With B18 as the binder, how does the “binding, % of positive control peptide” value read?
A: 1 % of positive control

Q: How did the “binding, % of positive control peptide” value turn out when B19 was run?
A: 5 % of positive control

What follows are binders tested against T4, MHC class I molecule B*0702 (biotin (bound to streptavidin-coated plate)) (assay: iTopia peptide binding assay).
T4 construct: iTopia monomer stripped of placeholder peptide and b2M, then reconstituted with test peptide and fresh b2M; also called B7; HLA-B7
In short: as §1

Q: With B1 as the binder, how does the “binding, % of positive control peptide” value read?
A: 1 % of positive control

Q: How did the “binding, % of positive control peptide” value turn out when B2 was run?
A: 3 % of positive control

Q: For B3, which “binding, % of positive control peptide” value is on record?
A: 4 % of positive control

Q: How did the “binding, % of positive control peptide” value turn out when B4 was run?
A: 3 % of positive control

Q: For B5, which “binding, % of positive control peptide” value is on record?
A: 6 % of positive control

Q: Which “binding, % of positive control peptide” value does the source give for B6 here?
A: 13 % of positive control

Q: Which “binding, % of positive control peptide” value does the source give for B7 here?
A: 0 % of positive control

Q: B8 was tested. Which “binding, % of positive control peptide” value did it give?
A: 0 % of positive control

Q: B9 was tested. Which “binding, % of positive control peptide” value did it give?
A: 3 % of positive control

Q: With B10 as the binder, how does the “binding, % of positive control peptide” value read?
A: 4 % of positive control

Q: How did the “binding, % of positive control peptide” value turn out when B11 was run?
A: 2 % of positive control

Q: With B12 as the binder, how does the “binding, % of positive control peptide” value read?
A: 5 % of positive control

Q: For B13, which “binding, % of positive control peptide” value is on record?
A: 6 % of positive control

Q: With B14 as the binder, how does the “binding, % of positive control peptide” value read?
A: 11 % of positive control

Q: Which “binding, % of positive control peptide” value does the source give for B15 here?
A: 0 % of positive control

Q: B16 was tested. Which “binding, % of positive control peptide” value did it give?
A: 6 % of positive control

Q: How did the “binding, % of positive control peptide” value turn out when B17 was run?
A: 0 % of positive control

Q: Which “binding, % of positive control peptide” value does the source give for B18 here?
A: 3 % of positive control

Q: With B19 as the binder, how does the “binding, % of positive control peptide” value read?
A: 3 % of positive control
